From patent US6399078 come the findings set out here.

The target of assay [1] is CCR5 (human) (UniProt P51681). The experiment in a line: flow cytometry of the activated human PBMC with mAb 2D7.
The target of assay [2] is CCR5 (human) (UniProt P51681). The experiment in a line: glycanase treated PBMC preincubated with mAb 2D7, then 125I-RANTES-heparin complexes as labelled ligand, gamma counting; reference normal mouse IgG.
Assay [3] concerns the target cell surface receptors on glycanase treated PBMC. The experiment in a line: saturation binding of 125I-RANTES-heparin complexes to glycanase treated activated human PBMC.
For assay [4] the target is unchanged. The experiment in a line: saturation binding of 125I-RANTES-heparin complexes to glycanase treated activated human PBMC, nonlinear curve fitting.
The target is the same in assay [5]. The experiment in a line: saturation binding of 125I-RANTES-heparin complexes to glycanase treated activated human PBMC, gamma counting, nonlinear curve fitting after subtracting non-specific binding.

Sequence of UniProt P51681 (P51681 whole entry): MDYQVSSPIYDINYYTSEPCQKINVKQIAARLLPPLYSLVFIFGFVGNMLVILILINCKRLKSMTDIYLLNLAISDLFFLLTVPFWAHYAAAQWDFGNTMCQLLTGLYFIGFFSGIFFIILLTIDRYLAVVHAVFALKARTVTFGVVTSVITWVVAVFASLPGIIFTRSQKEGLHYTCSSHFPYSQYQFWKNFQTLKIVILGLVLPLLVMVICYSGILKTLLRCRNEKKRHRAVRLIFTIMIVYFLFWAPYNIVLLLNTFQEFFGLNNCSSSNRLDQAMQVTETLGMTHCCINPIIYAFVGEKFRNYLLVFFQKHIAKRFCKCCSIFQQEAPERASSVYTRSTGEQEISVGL

In the case of anti-CCR5 monoclonal antibody 2D7, in the assay with CCR5 (human) [1], the percent of cells expressing CCR5 (stained by 2D7) came out at 100%. In the assay with CCR5 (human) [2], this substance registered a percent reduction of 125I-RANTES binding of 40 percent.

As for “125I-labeled RANTES-heparin complexes (from UniProt P13501 24-91) (ligand)”, the saturating concentration in assay [3] was > 1 nM. In addition, the Bmax (binding sites per cell) in assay [4] was found to be 900. This substance also yielded a Kd in assay [5] of 1.5 nM.
